The target in data set [1] is linear M1-linked tetra-ubiquitin (UniProt P0CG48). Nature of the data set: ITC.
The target in data set [2] is linear M1-linked tri-ubiquitin (UniProt P0CG48). The data set is described as follows: ITC. (In general: ITC needs no label: the signal is the heat of the interaction.)
For data set [3], the target named is linear M1-linked tetra-ubiquitin (UniProt P0CG48). Nature of the data set: SPR. (Surface plasmon resonance follows binding to a sensor surface in real time, without labels.)
Data set [4] addresses linear M1-linked tri-ubiquitin (UniProt P0CG48). The data set is described as follows: SPR.
Data set [5] deals with linear M1-linked tetra-ubiquitin (UniProt P0CG48). The data set is described as follows: SEC-MALS. (In general: In gel filtration, larger molecules generally elute earlier.)
The data set “SEC-MALS” deals with the molecule itself. Nature of the data set: SEC-MALS.
For data set [6], the target named is linear M1-linked tri-ubiquitin (UniProt P0CG48). Nature of the data set: SEC-MALS.

By Kd is commonly meant the free concentration of one partner at which half of the binding sites on the other are occupied at equilibrium, for simple one-to-one binding. Low values mean tighter binding, high ones weaker binding.

Sequence of linear M1-linked tetra-ubiquitin (P0CG48 1-304): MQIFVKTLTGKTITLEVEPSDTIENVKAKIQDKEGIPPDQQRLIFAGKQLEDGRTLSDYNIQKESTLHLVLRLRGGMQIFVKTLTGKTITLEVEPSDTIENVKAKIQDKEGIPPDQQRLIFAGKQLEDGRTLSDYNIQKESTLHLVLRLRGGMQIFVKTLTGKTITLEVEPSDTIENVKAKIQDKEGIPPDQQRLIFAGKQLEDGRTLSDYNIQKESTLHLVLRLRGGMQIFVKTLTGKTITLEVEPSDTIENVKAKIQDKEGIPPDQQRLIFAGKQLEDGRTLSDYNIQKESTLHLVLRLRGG
Sequence of linear M1-linked tri-ubiquitin (P0CG48 1-228): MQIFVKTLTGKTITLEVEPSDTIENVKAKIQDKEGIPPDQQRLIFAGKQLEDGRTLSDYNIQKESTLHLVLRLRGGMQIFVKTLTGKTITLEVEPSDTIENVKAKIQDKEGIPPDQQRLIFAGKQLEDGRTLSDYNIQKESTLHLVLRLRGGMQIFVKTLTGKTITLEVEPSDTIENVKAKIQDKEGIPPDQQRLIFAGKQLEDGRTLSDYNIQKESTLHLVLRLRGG

B1: Human NEMO 258-350 C347S (NEMO UBAN domain) (domain or fragment)
chain: MQLEDLKQQLQQAEEALVAKQEVIDKLKEEAEQHKIVMETVPVLKAQADIYKADFQAERQAREKLAEKKELLQEQLEQLQREYSKLKASSQES
Regarding B1, the Kd in data set [1] turned out to be 4.1 µM; in data set [2] it was 1.6 µM; in data set [3] it was 6.4 µM; in data set [4], 9.6 µM. Further, the results for the dH in data set [1] and in data set [2] were -4.49 kcal/mol and -4.28 kcal/mol, respectively. Besides, the “stoichiometry N” value in data set [5] and in data set [6] was 2 NEMO monomers per poly-ubiquitin throughout. In the data set “SEC-MALS”, the binding result is “binds”.

Values taken from paper doi:10.1101/2020.04.14.041327 (bioRxiv, 2020).
